Reference: patent EP2500357A2 (Abbott Laboratories, dated 2012)
Each block holds one binder with its values, some of them ahead of it.

Legend:
Experiment in all cases: cell-based or functional assay
[1] = target: human IL-18 (human, UniProt Q14116 37-193)
[2] = target: T1, human IL-12 (human, UniProt P29459 23-219; P29460 23-328)
T1 sequence (looked up) 1: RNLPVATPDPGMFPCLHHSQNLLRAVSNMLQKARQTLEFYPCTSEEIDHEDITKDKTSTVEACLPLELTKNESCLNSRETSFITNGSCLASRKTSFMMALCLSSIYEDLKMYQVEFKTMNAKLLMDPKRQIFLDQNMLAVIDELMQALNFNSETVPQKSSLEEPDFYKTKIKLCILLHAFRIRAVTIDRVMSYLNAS
T1 sequence (looked up) 2: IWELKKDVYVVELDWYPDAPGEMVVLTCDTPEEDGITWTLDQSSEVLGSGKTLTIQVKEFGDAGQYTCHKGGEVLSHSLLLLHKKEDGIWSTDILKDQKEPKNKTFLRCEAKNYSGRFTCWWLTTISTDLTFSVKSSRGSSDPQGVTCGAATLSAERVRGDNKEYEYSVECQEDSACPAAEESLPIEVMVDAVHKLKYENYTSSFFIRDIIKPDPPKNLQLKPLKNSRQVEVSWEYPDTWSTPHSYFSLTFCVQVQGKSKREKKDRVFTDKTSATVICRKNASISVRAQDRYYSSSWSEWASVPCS

[3] = target: T2, mouse IL-1α (mouse, UniProt P01582 115-270)
T2 sequence (looked up): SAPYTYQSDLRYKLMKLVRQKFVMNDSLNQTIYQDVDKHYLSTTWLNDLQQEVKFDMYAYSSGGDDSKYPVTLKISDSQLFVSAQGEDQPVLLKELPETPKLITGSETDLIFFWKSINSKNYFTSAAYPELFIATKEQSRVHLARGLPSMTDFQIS

[4] = target: mouse IL-1β (mouse, UniProt P10749 118-269)
[5] = target: T3, recombinant human IL-1β (human, UniProt P01584 117-269)
[6] = target: T3, recombinant human IL-1β; remark: listed apart in the source
[7] = target: T3, recombinant human IL-1β; remark: listed apart in the source
[8] = target: T4, recombinant human IL-1α (human, UniProt P01583 113-271)
T4 sequence (looked up): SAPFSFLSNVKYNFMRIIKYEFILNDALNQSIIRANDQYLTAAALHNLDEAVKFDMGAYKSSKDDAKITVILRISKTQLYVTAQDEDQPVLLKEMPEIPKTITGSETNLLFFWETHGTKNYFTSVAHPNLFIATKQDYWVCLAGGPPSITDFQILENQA

[9] = target: T3, recombinant human IL-1β; remark: listed apart in the source
[10] = target: T4, recombinant human IL-1α; remark: listed apart in the source
[11] = target: T4, recombinant human IL-1α; remark: listed apart in the source

Sequence of mouse IL-1β (P10749 118-269 limits assumed): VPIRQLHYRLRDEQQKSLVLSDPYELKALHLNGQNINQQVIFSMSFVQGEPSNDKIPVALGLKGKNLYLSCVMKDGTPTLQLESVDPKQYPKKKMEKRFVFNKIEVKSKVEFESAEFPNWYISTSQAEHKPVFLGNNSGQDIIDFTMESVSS

Potency (IC50), KG-1 bioassay (IFN-γ production) [1]: 0.078 nM
Potency (IC50), IL-12-induced IFN-γ production by PHA blast cells [2]: 0.118 nM
B1: DVD1812LL (anti-IL12/IL18 DVD-Ig) (bispecific antibody, human IgG1, kappa)
heavy: not shown
light: EIVMTQSPATLSVSPGERATLSCRASESISSNLAWYQQKPGQAPRLFIYTASTRATDIPARFSGSGSGTEFTLTISSLQSEDFAVYYCQQYNNWPSITFGQGTRLEIKRTVAAPSVFIFPPQSVLTQPPSVSGAPGQRVTISCSGSRSNIGSNTVKWYQQLPGTAPKLLIYYNDQRPSGVPDRFSGSKSGTSASLAITGLQAEDEADYYCQSYDRYTHPALLFGTGTKVTVLGTVAAPSVFIFPPSDEQLKSGTASVVCLLNNFYPREAKVQWKVDNALQSGNSQESVTEQDSKDSTYSLSSTLTLSKADYEKHKVYACEVTHQGLSSPVTKSFNRGEC

IC50, in vitro potency (assay not described) [3]: 2 nM
IC50, in vitro potency (assay not described) [4]: 0.8 nM
B2: mIL-1α/β DVD-Ig (bispecific antibody, mouse IgG2a, kappa)
heavy: EVQLQQSGPELVKPGTSVKMSCKTSGYTFTSYVMHWVKQKPGQGLEWIGYIIPYNDNTKYNEKFKGKATLTSDKSSSTAYMELSSLTSEDSAVYYCARRNEYYGSSFFDYWGQGTTLTVSSAKTTAPSVYPLAPQVILKESGPGILQPSQTLSLTCSFSGFSLSTYGTAVNWIRQPSGKGLEWLAQIGSDDRKLYNPFLKSRITLSEDTSNSQVFLKITSVDTEDSATYYCANGVMEYWGLGTSVTVSSAKTTAPSVYPLAPVCGDTTGSSVTLGCLVKGYFPEPVTLTWNSGSLSSGVHTFPAVLQSDLYTLSSSVTVTSSTWPSQSITCNVAHPASSTKVDKKIEPRGPTIKPCPPCKCPAPNLLGGPSVFIFPPKIKDVLMISLSPIVTCVVVDVSEDDPDVQISWFVNNVEVHTAQTQTHREDYNSTLRVVSALPIQHQDWMSGKEFKCKVNNKDLPAPIERTISKPKGSVRAPQVYVLPPPEEEMTKKQVTLTCMVTDFMPEDIYVEWTNNGKTELNYKNTEPVLDSDGSYFMYSKLRVEKKNWVERNSYSCSVVHEGLHNHHTTKSFSRTPGK
light: DIQMTQSPASLSASVGETVTITCRGSGILHNYLVWYQQKQGKSPQLLVYSAKILADGVPSRFSGSGSGTQYSLKINSLQPEDFGSYYCQHFWSTPFTFGSGTKLEIKRADAAPTVSIFPPSIVMTQTPKFLLVSAGDRVTITCKASQSVNHDVAWYQQMPGQSPKLLIYFASNRYTGVPDRFTGSGYGTDFTFTISTVQAEDLAVYFCQQDYSSPYTFGGGTKLEIKRADAAPTVSIFPPSSEQLTSGGASVVCFLNNFYPKDINVKWKIDGSERQNGVLNSWTDQDSKDSTYSMSSTLTLTKDEYERHNSYTCEATHKTSTSPIVKSFNRNEC

Potency (IC50), KG-1 bioassay (IFN-γ production) [1]: 0.04 nM
Potency (IC50), IL-12-induced IFN-γ production by PHA blast cells [2]: 0.366 nM
B3: DVD1812SL (anti-IL12/IL18 DVD-Ig) (bispecific antibody, human IgG1, kappa)
heavy: not shown
light: EIVMTQSPATLSVSPGERATLSCRASESISSNLAWYQQKPGQAPRLFIYTASTRATDIPARFSGSGSGTEFTLTISSLQSEDFAVYYCQQYNNWPSITFGQGTRLEIKRTVAAPQSVLTQPPSVSGAPGQRVTISCSGSRSNIGSNTVKWYQQLPGTAPKLLIYYNDQRPSGVPDRFSGSKSGTSASLAITGLQAEDEADYYCQSYDRYTHPALLFGTGTKVTVLGTVAAPSVFIFPPSDEQLKSGTASVVCLLNNFYPREAKVQWKVDNALQSGNSQESVTEQDSKDSTYSLSSTLTLSKADYEKHKVYACEVTHQGLSSPVTKSFNRGEC

IC50, MRC-5 bioassay [5]: 0.4 nM
IC50, inhibition of IL-8 production by MRC-5 cells [6]: 0.32 nM
B4: murine anti-hIL-1β mAb 6B12.4F6 (antibody, V domains shown)
VH: EVQLQQSGPELVKTGTSVKISCKASGYSFTGYYMHWVRQSHGKSLEWIGYISCYNGFTSYNPKFKGKATFTVDTSSSTAYIQFSRLTSEDSAVYYCARSDYYGTNDYWGQGTTLTVSS
VL: QIVLTQSPAIMSASPGEKVTITCSASSSVSYMHWFQQKPGASPKLWIYSTSNLASGVPARFSGSGSGTSYSLTVSRMEAEDAATYYCQQRSTYPYTFGGGTKLEIKR

IC50, in vitro potency (assay not described) [4]: 0.37 nM
B5: mouse anti-mouse IL-1β mAb 10G11 (antibody, V domains shown)
VH: EVQLQQSGPELVKPGTSVKMSCKTSGYTFTSYVMHWVKQKPGQGLEWIGYIIPYNDNTKYNEKFKGKATLTSDKSSSTAYMELSSLTSEDSAVYYCARRNEYYGSSFFDYWGQGTTLTVSS
VL: DIQMTQSPASLSASVGETVTITCRGSGILHNYLVWYQQKQGKSPQLLVYSAKILADGVPSRFSGSGSGTQYSLKINSLQPEDFGSYYCQHFWSTPFTFGSGTKLEIKR

dual-inhibition activity, IL-8 synthesis by MRC-5 cells with both IL-1α and IL-1β present [7]: 1.2 nM
neutralizing activity to hIL-1β relative to DVD1-Ig [7]: 3 fold
dual-inhibition activity, IL-8 synthesis by MRC-5 cells with both IL-1α and IL-1β present [8]: 1.2 nM
neutralizing activity against hIL-1α relative to the chimeric Abs [8]: 3 fold
Potency (IC50), MRC-5 bioassay [9]: 1.6 nM
Potency (IC50), MRC-5 bioassay [10]: 2.9 nM
B6: hIL-1a/bDVD2-Ig (bispecific antibody, human IgG1, kappa)
heavy: not shown
light: NIVLTQSPASLAVSLGQRATISCRASESVDSYGNSYMHWYQQKPGQPPKLLIYLASNLESGVPARFSGSGSRTDFTLTIDPVEADDAATYYCQQNNEDPFTFGSGTKLEIKRADAAPNIQMTQTTSSLSASLGDRVTISCRASQDISNCLNWYQQKPDGTVKLLIYYTSRLHSGVPSRFSGSGSGTDYSLTISNLEQEDIATYFCQQGKTLPYAFGGGTKLEINRTVAAPSVFIFPPSDEQLKSGTASVVCLLNNFYPREAKVQWKVDNALQSGNSQESVTEQDSKDSTYSLSSTLTLSKADYEKHKVYACEVTHQGLSSPVTKSFNRGEC

IC50, inhibition of IL-8 production by MRC-5 cells [6]: 0.6 nM
Potency (IC50), MRC-5 bioassay [9]: 0.6 nM
B7: murine anti-hIL-1β mAb 13F5.G5 (antibody, V domains shown)
VH: QVQLQQSGAELVRPGSSVKISCKASGYAFSSYWMNWVKQRPGQGLEWIGQIYPGDGDTNYNGKFKGKATLTADKSSSTSYMQLSGLTSEDSAMYFCVRFPTGNDYYAMDYWGQGTSVTVSS
VL: NIVLTQSPASLAVSLGQRATISCRASESVDSYGNSYMHWYQQKPGQPPKLLIYLASNLESGVPARFSGSGSRTDFTLTIDPVEADDAATYYCQQNNEDPFTFGSGTKLEIKR

IC50, inhibition of IL-8 production by MRC-5 cells [11]: 0.67 nM
Potency (IC50), MRC-5 bioassay [10]: 0.67 nM
B8: murine anti-hIL-1α mAb 3D12.E3 (antibody, V domains shown)
VH: QIQLVQSGPELKKPGETVKISCKASGYTFRNYGMNWVKQAPGKDLKRMAWINTYTGESTYADDFKGRFAFSLETSASTAYLQINNLKNEDTATYFCARGIYYYGSSYAMDYWGQGTSVTVSS
VL: NIQMTQTTSSLSASLGDRVTISCRASQDISNCLNWYQQKPDGTVKLLIYYTSRLHSGVPSRFSGSGSGTDYSLTISNLEQEDIATYFCQQGKTLPYAFGGGTKLEINR

IC50, IL-12-induced IFN-γ production by PHA blast cells [2]: 0.005 nM
B9: ABT874 (anti-human IL-12p40 mAb) (antibody, V domains shown)
VH: QVQLVESGGGVVQPGRSLRLSCAASGFTFSSYGMHWVRQAPGKGLEWVAFIRYDGSNKYYADSVKGRFTISRDNSKNTLYLQMNSLRAEDTAVYYCKTHGSHDNWGQGTMVTVSS
VL: QSVLTQPPSVSGAPGQRVTISCSGSRSNIGSNTVKWYQQLPGTAPKLLIYYNDQRPSGVPDRFSGSKSGTSASLAITGLQAEDEADYYCQSYDRYTHPALLFGTGTKVTVLG

IC50, MRC-5 bioassay [5]: 0.6 nM
IC50, inhibition of IL-8 production by MRC-5 cells [6]: 0.53 nM
B10: murine anti-hIL-1β mAb 1B12.4H4 (antibody, V domains shown)
VH: QVHLKESGPGLVAPSQSLSITCTVSGFSLTDYGVSWIRQPPGKGLEWLGLIWGGGDTYYNSPLKSRLSIRKDNSKSQVFLKMNSLQTDDTAVYYCAKQRTLWGYDLYGMDYWGQGTSVTVSS
VL: ETTVTQSPASLSMAIGEKVTIRCITSTDIDVDMNWYQQKPGEPPKLLISQGNTLRPGVPSRFSSSGSGTDFVFIIENMLSEDVADYYCLQSDNLPLTFGAGTKLELKR

IC50, in vitro potency (assay not described) [3]: 0.2 nM
B11: mouse anti-mouse IL-1α mAb 9H10 (antibody, V domains shown)
VH: QVILKESGPGILQPSQTLSLTCSFSGFSLSTYGTAVNWIRQPSGKGLEWLAQIGSDDRKLYNPFLKSRITLSEDTSNSQVFLKITSVDTEDSATYYCANGVMEYWGLGTSVTVSS
VL: SIVMTQTPKFLLVSAGDRVTITCKASQSVNHDVAWYQQMPGQSPKLLIYFASNRYTGVPDRFTGSGYGTDFTFTISTVQAEDLAVYFCQQDYSSPYTFGGGTKLEIKR
